From patent US5917018

Target: natural class I heavy chain molecules
Assay: binding to class I heavy chain, method not given

affinity against that of human β2-microglobulin: 5 times lower
Substance: recombinant murine β2-microglobulin
